Data as given in patent US20090041767A1, “PHARMACEUTICAL COMBINATIONS” (priority 2007, published 2009).

Target: mouse α5β1 (Mus musculus, UniProt P09055+P11688)
Experiment: antibody binding to mouse α5β1 integrin

Chain of mouse α5β1 (P11688 45-1053): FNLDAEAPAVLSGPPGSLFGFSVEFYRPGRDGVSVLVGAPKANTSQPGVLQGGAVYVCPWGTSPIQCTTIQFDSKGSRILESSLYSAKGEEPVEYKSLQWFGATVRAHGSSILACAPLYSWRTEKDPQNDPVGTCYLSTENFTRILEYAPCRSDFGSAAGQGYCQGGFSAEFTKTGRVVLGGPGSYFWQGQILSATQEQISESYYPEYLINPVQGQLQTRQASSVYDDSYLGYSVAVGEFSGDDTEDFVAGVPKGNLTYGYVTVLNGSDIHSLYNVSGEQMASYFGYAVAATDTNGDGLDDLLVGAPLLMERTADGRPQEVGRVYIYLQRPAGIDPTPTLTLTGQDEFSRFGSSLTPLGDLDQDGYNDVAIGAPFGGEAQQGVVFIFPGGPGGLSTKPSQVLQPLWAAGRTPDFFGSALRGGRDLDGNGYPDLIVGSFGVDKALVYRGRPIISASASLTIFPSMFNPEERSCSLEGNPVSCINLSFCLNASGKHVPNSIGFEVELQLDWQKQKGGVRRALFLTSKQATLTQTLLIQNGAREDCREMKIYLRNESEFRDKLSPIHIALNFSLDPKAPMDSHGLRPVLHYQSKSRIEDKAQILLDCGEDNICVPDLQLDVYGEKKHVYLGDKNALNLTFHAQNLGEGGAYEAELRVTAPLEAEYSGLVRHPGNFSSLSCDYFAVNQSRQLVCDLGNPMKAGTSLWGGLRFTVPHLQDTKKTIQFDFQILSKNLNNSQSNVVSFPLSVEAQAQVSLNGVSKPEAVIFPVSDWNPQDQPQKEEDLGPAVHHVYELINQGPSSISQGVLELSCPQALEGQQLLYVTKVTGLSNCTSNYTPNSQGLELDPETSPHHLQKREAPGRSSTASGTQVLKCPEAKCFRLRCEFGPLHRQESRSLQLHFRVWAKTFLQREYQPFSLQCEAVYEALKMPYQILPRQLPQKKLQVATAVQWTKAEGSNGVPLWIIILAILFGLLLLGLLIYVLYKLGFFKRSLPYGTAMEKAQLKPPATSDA
Chain of mouse α5β1 (P09055 21-798): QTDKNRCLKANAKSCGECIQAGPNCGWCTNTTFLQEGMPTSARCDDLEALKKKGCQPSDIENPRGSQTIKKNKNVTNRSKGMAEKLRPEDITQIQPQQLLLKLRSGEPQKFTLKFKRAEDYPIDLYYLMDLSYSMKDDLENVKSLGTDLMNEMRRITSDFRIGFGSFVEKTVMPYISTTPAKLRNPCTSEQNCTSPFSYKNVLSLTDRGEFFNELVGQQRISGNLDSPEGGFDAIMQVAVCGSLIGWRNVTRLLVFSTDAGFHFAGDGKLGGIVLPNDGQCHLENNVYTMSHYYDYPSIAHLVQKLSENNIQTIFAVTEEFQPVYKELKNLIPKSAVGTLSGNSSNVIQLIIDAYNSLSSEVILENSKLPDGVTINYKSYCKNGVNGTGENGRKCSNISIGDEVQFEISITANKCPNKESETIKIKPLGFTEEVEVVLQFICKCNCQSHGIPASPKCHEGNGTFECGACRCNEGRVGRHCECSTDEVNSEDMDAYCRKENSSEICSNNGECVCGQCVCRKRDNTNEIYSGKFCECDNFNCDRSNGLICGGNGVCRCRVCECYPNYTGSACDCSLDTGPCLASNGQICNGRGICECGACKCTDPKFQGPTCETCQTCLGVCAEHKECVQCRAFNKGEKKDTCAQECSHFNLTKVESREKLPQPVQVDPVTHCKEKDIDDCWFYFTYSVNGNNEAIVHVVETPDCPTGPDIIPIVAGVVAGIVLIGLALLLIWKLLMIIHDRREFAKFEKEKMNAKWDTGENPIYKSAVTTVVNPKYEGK

B1: 339.1: monoclonal antibody that targets murine α5β1; volociximab surrogate; VH SEQ ID NO: 22, VL SEQ ID NO: 23 (antibody, V domains shown)
VH: MDIRLSLAFLVLFIKGVQCEVYLVESGGGSVQPGRSTKLSCAASEFTFSTSSMAWVRQAPTKGLEWVATISSSGEYTYYRDSVKGRFTISRDNAKSTLYLQMNSLRSEDTATYYCTRGVLYWGQGVMVTVSS
VL: MAPVQLLGLLLLCLPAMRCDIQMTQSPSLLSASVGDRVTLNCKSSQNIYKNLNWYQQKLGEPPKLLIHYTDNLQAGIPSRFSGSGSGTDYTLTISSLHPDDVATYFCFQYNRGPTFGAGTKLELK
modifications: heavy chain variable region for mouse volociximab analog; light chain variable region for mouse volociximab analog
In the case of B1, the “binding to mouse α5β1” value is reported as “binds mouse α5β1 with high affinity”.
